# Measurements as given in patent US20190322750A1 (Y BIOLOGICS, published 2019).
# Tests used:
# [1] = target: T1, PD-L1 on CHO cell line highly expressing PD-L1 (PD-1/PD-L1 blockade bioassay kit, promega J1250) (UniProt Q9NZQ7 19-290, limits assumed); assay: cell-based or functional assay
# [2] = target: T1, PD-L1 on CHO cell line highly …; assay: cell-based or functional assay; remark: listed apart in the source
# [3] = target: T2, human PD-L1 over-expressed on HEK293E cells (human, UniProt Q9NZQ7 19-290); assay: flow cytometry on HEK293E/PD-L1 cells, FITC anti-human IgG, serial dilutions; fit table
# T2 construct: whole, on cells; also called human PD-L1 (NM_014143.2)
# Experimental: 0.5 to 1×10⁶ cells per sample were prepared from the transformation cell pools highly expressing human PD-L1, and antibodies were serially diluted at a constant dilution rate and reacted with the prepared cells at 4° C. for 20 minutes. Then, the cells were washed three times with PBS (#LB001-02, Welgene) containing 2% fetal bovine serum and reacted at 4° C. for 20 minutes with an anti-human IgG antibody (#FI-3000, Vectorlabs) conjugated with a FITC (fluorescein isothiocyanate) fluorescent substance. Then, the cells were subjected to the same washing process as above and then suspended in 0.5 ml of PBS containing 2% FBS (#26140-079, Thermo Fisher) with an FACSCanto II flow cytometer (BD Biosciences, USA) as a flow cytometer (Table 11).
# PD-L1-hFc = target: T3, PD-L1-hFc (human, UniProt Q9NZQ7 19-238); assay: kinetics on PD-L1-hFc (legend paragraph 40; text names ProteOn XPR36, the sheet's sensorgrams have a nm axis)
# T3 construct: extracellular domain; Made in HEK-293F cells, protein A purified; also called PD-L1 antigen; PD-L1 protein
# T3 sequence (Q9NZQ7 other isoform, or with tags, fused parts or gaps limits assumed): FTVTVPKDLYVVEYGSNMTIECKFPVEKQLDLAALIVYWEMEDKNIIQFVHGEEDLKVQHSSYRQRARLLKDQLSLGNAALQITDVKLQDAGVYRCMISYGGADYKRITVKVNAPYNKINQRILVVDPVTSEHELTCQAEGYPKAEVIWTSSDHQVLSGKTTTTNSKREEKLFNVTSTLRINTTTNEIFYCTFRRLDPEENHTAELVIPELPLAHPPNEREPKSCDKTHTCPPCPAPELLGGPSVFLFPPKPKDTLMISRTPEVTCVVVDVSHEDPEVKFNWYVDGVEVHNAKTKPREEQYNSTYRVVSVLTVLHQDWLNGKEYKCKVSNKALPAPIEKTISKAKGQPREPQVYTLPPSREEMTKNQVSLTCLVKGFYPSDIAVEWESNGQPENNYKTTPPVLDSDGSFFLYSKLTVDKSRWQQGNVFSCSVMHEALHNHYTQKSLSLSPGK
# T1 sequence (Q9NZQ7 19-290 limits assumed): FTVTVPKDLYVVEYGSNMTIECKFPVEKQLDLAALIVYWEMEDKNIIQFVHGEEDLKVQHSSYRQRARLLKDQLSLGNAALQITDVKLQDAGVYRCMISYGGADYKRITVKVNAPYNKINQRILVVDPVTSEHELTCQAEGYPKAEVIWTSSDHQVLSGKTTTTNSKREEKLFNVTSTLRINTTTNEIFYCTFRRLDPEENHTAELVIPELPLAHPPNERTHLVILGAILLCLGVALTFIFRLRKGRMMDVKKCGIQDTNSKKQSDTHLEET
# T2 sequence (Q9NZQ7 19-290): as the sequence (Q9NZQ7 19-290 limits assumed) above
binder,measurement,setting,value
"PDL1-16E12 (LS/4A6) (antibody, V domains shown) VH: QMQLVQSGAEVKKPGSSVKVSCKASGGTFSSYAISWVRQAPGQGLEWMGRIIPILGIANYAQKFQGRVTITADKSTSTAYMELSSLRSEDTAVYYCAKPRDGYNLVAFDIWGQGTMVTVSS VL: QLVLTQPTSVSGAPGQRVIISCTGSSSNIGAGYDVHWYQQLPGTAPKLLIYGNTNRPSGVPDRFSGSKSGTAASLAITGLQAEDEADYYCQSFDRSRSGSNVFGTGTKVTVL","Average *EC50 [nM], PD-1/PD-L1 blockade bioassay",[1],0.48 nM
"PDL1-16E12 (LS/4B8) (antibody, V domains shown) VH: QMQLVQSGAEVKKPGSSVKVSCKASGGTFSSYAISWVRQAPGQGLEWMGRIIPILGIANYAQKFQGRVTITADKSTSTAYMELSSLRSEDTAVYYCAKPRDGYNLVAFDIWGQGTMVTVSS VL: QLVLTQPPSVSGAPGQSVTISCTGSNSDIGAGHDVHWYQQLPGAAPKLLIHGDRDRPSGVPDRFSGSKSGTSASLAITGLQPEDEADYYCQSYNNSLRGSVFGTGTKVTVL","Average *EC50 [nM], PD-1/PD-L1 blockade bioassay",[1],188 nM
"PDL1-16E12 (LS/4B11) (antibody, V domains shown) VH: QMQLVQSGAEVKKPGSSVKVSCKASGGTFSSYAISWVRQAPGQGLEWMGRIIPILGIANYAQKFQGRVTITADKSTSTAYMELSSLRSEDTAVYYCAKPRDGYNLVAFDIWGQGTMVTVSS VL: QLVLTQPPSVSGAPGQRVTISCTGTNSNIGAGHDVQWYQQIPGTAPKLLIYGNNNRPSGVPDRFSGSKSGTLASLAITGLQSEDEADYYCHSYDGSLSEGVFGTGTKVTVL","Average *EC50 [nM], PD-1/PD-L1 blockade bioassay",[1],0.63 nM
"PDL1-16E12 (LS/4H11) (antibody, V domains shown) VH: QMQLVQSGAEVKKPGSSVKVSCKASGGTFSSYAISWVRQAPGQGLEWMGRIIPILGIANYAQKFQGRVTITADKSTSTAYMELSSLRSEDTAVYYCAKPRDGYNLVAFDIWGQGTMVTVSS VL: QLVLTQPPSVSGAPGQRVTISCTGSSSNVGAGYDVHWYQQLPGTAPKLLIYGNNNRPSGVPARFSGSKSGTSASLAITGLQAEDEADYYCQSYDSRLGVVFGGGTKLTVL","Average *EC50 [nM], PD-1/PD-L1 blockade bioassay",[1],1.02 nM
"PDL1-16E12 (LS/4A10) (antibody, V domains shown) VH: QMQLVQSGAEVKKPGSSVKVSCKASGGTFSSYAISWVRQAPGQGLEWMGRIIPILGIANYAQKFQGRVTITADKSTSTAYMELSSLRSEDTAVYYCAKPRDGYNLVAFDIWGQGTMVTVSS VL: QLVLTQPPSVSGAPGQRVTISCTGSNSNIGAGYDVHWYQQLPGTAPKLLIHGNNIRPSGVPDRFSGSRSGTSASLAITGLQADDEANYFCQSYDNSLRGSVFGTGTKVTVL","Average *EC50 [nM], PD-1/PD-L1 blockade bioassay",[1],0.45 nM
"PDL1-16E12 (LS/4E12) (antibody, V domains shown) VH: QMQLVQSGAEVKKPGSSVKVSCKASGGTFSSYAISWVRQAPGQGLEWMGRIIPILGIANYAQKFQGRVTITADKSTSTAYMELSSLRSEDTAVYYCAKPRDGYNLVAFDIWGQGTMVTVSS VL: QLVLTQPPSVSAAPGQKVTFSCTGSSSNIGAGYDVHWYQHLPGAAPRLLIYANTNRPLGVPDRFSGSKSGTSASLAITGLQAEDEADYYCQSYDNRLSGSLFGGGTKLTVL","Average *EC50 [nM], PD-1/PD-L1 blockade bioassay",[1],0.49 nM
"PDL1-16E12 (LS/4H5) (antibody, V domains shown, also called PD-L1-16E12-4H5) VH: QMQLVQSGAEVKKPGSSVKVSCKASGGTFSSYAISWVRQAPGQGLEWMGRIIPILGIANYAQKFQGRVTITADKSTSTAYMELSSLRSEDTAVYYCAKPRDGYNLVAFDIWGQGTMVTVSS VL: QLVLTQPPSVSGAPGQRVTISCTGSSSNIGAGYDVHWYQQLPGTAPKLLIYGNSNRPSGVPDRFSGSKSGTSASLAITGLQAEDEADYYCQSYDSSLSGGVFGGGTKLTVL","Average *EC50 [nM], PD-1/PD-L1 blockade bioassay",[1],0.33 nM
same,EC50 (first run),[2],0.43 nM
same,EC50 (second run),[2],0.26 nM
same,Bmax,[3],4020
same,Kd,[3],1.93 nM
same,Kd,PD-L1-hFc,< 0.001 nM
same,koff,PD-L1-hFc,< 1e-07 s⁻¹
same,kon,PD-L1-hFc,226000 M⁻¹ s⁻¹
"PDL1-16E12 (LS/4F11) (antibody, V domains shown) VH: QMQLVQSGAEVKKPGSSVKVSCKASGGTFSSYAISWVRQAPGQGLEWMGRIIPILGIANYAQKFQGRVTITADKSTSTAYMELSSLRSEDTAVYYCAKPRDGYNLVAFDIWGQGTMVTVSS VL: QFVLTQPPSVSGAPGQRVTISCTGSSSNIGAGSDVHWYQQLPGTAPKLLIYGNNNRPSGVPDRFSGSKSGTSASLAITGLQAEDEADYYCQSYDSSLNGVVFGGGTKLTVL","Average *EC50 [nM], PD-1/PD-L1 blockade bioassay",[1],1.68 nM
"PDL1-16E12 (LS/4A8) (antibody, V domains shown) VH: QMQLVQSGAEVKKPGSSVKVSCKASGGTFSSYAISWVRQAPGQGLEWMGRIIPILGIANYAQKFQGRVTITADKSTSTAYMELSSLRSEDTAVYYCAKPRDGYNLVAFDIWGQGTMVTVSS VL: QLVLTQPPSVSGAPGQRVTISCTGSSSNIGAGYDVHWYQHRPGKAPQLLIYGDNNRPSGIPDRFSGSKSGTSASLAITGLQPEDEADYYCQSFDSRLGVVFGGGTKLTVL","Average *EC50 [nM], PD-1/PD-L1 blockade bioassay",[1],0.83 nM
"PDL1-16E12 (LS/4A11) (antibody, V domains shown, also called PD-L1-16E12-4A11) VH: QMQLVQSGAEVKKPGSSVKVSCKASGGTFSSYAISWVRQAPGQGLEWMGRIIPILGIANYAQKFQGRVTITADKSTSTAYMELSSLRSEDTAVYYCAKPRDGYNLVAFDIWGQGTMVTVSS VL: QLVLTQPPSVSGAPGQRVIISCTGSSSNIGAGYDVHWYQQVPGTAPKLLIYGNNHRPSGVPDRFSGSKSGTSASLAITGLQAEDETDYYCQSYDNRLSGSLFGGGTKLTVL","Average *EC50 [nM], PD-1/PD-L1 blockade bioassay",[1],0.34 nM
same,EC50 (first run),[2],0.37 nM
same,EC50 (second run),[2],0.36 nM
same,Bmax,[3],4230
same,Kd,[3],2.57 nM
same,Kd,PD-L1-hFc,0.0798 nM
same,koff,PD-L1-hFc,1.28e-05 s⁻¹
same,kon,PD-L1-hFc,160000 M⁻¹ s⁻¹
"PDL1-16E12 (LS/4B12) (antibody, V domains shown) VH: QMQLVQSGAEVKKPGSSVKVSCKASGGTFSSYAISWVRQAPGQGLEWMGRIIPILGIANYAQKFQGRVTITADKSTSTAYMELSSLRSEDTAVYYCAKPRDGYNLVAFDIWGQGTMVTVSS VL: QLVLTQPPSVSGAPGQRVTISCTGSSSNIGAGYDVHWYQQLPGTAPKLIIYGDTKRASGVPDRFSGSKSGTSASLAITGLQAEDGADYYCQSYDNSLSAHAVFGTGTKVTVL","Average *EC50 [nM], PD-1/PD-L1 blockade bioassay",[1],0.46 nM
"PDL1-16E12 (LS/4G1) (antibody, V domains shown) VH: QMQLVQSGAEVKKPGSSVKVSCKASGGTFSSYAISWVRQAPGQGLEWMGRIIPILGIANYAQKFQGRVTITADKSTSTAYMELSSLRSEDTAVYYCAKPRDGYNLVAFDIWGQGTMVTVSS VL: QLVLTQPPSVSGAPGQRVTISCTGGSSNIGAGYDVHWYQQLPGTAPKLLLFGNTNRPSGVPGRFSGSKSGSSASLAITGLQSDDEADYYCQSYDSSLSGSVFGTGTKVTVL","Average *EC50 [nM], PD-1/PD-L1 blockade bioassay",[1],0.47 nM
"PDL1-16E12 (LS/4E5) (antibody, V domains shown) VH: QMQLVQSGAEVKKPGSSVKVSCKASGGTFSSYAISWVRQAPGQGLEWMGRIIPILGIANYAQKFQGRVTITADKSTSTAYMELSSLRSEDTAVYYCAKPRDGYNLVAFDIWGQGTMVTVSS VL: QLVLTQPPSVSGAPGQGVTISCTGDSSNIGAGYDVHWYQQFPGTAPKLLIYENSNRPSGVPDRFSGSKSGTSASLAITGLQAEDEADYYCQSYDSRLGAVFGGGTKLTVL","Average *EC50 [nM], PD-1/PD-L1 blockade bioassay",[1],0.45 nM
"PDL1-16E12 (LS/4A7) (antibody, V domains shown, also called PD-L1-16E12-4A7) VH: QMQLVQSGAEVKKPGSSVKVSCKASGGTFSSYAISWVRQAPGQGLEWMGRIIPILGIANYAQKFQGRVTITADKSTSTAYMELSSLRSEDTAVYYCAKPRDGYNLVAFDIWGQGTMVTVSS VL: QLVLTQPPSVSGAPGQRVTISCTGSSSNIGAGYDVHWYQSLPGTVPKLLISGNSNRPPGVPDRFSGSKSGTSASLAITSLQSEDEADYYCHSYDGSLSEGVFGTGTKVTVL","Average *EC50 [nM], PD-1/PD-L1 blockade bioassay",[1],0.37 nM
same,EC50 (first run),[2],0.38 nM
same,EC50 (second run),[2],0.4 nM
same,Bmax,[3],4260
same,Kd,[3],3.92 nM
same,Kd,PD-L1-hFc,0.0396 nM
same,kon,PD-L1-hFc,161000 M⁻¹ s⁻¹
"PDL1-16E12 (LS/4H6) (antibody, V domains shown) VH: QMQLVQSGAEVKKPGSSVKVSCKASGGTFSSYAISWVRQAPGQGLEWMGRIIPILGIANYAQKFQGRVTITADKSTSTAYMELSSLRSEDTAVYYCAKPRDGYNLVAFDIWGQGTMVTVSS VL: QLVLTQPPSVSAAPGQTVTISCTGSSSNIGAGYDVHWYQQFPGTAPKLLIYGNNNRPSGVPDRFSGSKSGTSASLAITGLQTDDEADYFCQSYDSSLRVSSVFGTGTKVTVL","Average *EC50 [nM], PD-1/PD-L1 blockade bioassay",[1],0.51 nM
"PDL1-16E12 (LS/4H9) (antibody, V domains shown) VH: QMQLVQSGAEVKKPGSSVKVSCKASGGTFSSYAISWVRQAPGQGLEWMGRIIPILGIANYAQKFQGRVTITADKSTSTAYMELSSLRSEDTAVYYCAKPRDGYNLVAFDIWGQGTMVTVSS VL: QFVLTQPPSVSGAPGQRVTISCTGSRSNFGAGHDVHWYQQLPGTAPKLLIYGNNNRPSGVPDRFSGSKSGTSASLAIAGLQSDDEADYYCQSYDSSLSGSVFGTGTKVTVL","Average *EC50 [nM], PD-1/PD-L1 blockade bioassay",[1],0.63 nM
"PDL1-16E12 (LS/4D4) (antibody, V domains shown) VH: QMQLVQSGAEVKKPGSSVKVSCKASGGTFSSYAISWVRQAPGQGLEWMGRIIPILGIANYAQKFQGRVTITADKSTSTAYMELSSLRSEDTAVYYCAKPRDGYNLVAFDIWGQGTMVTVSS VL: QLVLTQPSSVSGAPGQRVTISCTGSSSNLGAPYDVHWYQQLPGTAPKLLIYGNSNRPSGVPDRFSVSKSGTSASLAITGLQAEDEADYYCQSYDSSLSSSVFGGGTKLTVL","Average *EC50 [nM], PD-1/PD-L1 blockade bioassay",[1],0.57 nM
